pIC50: −log10 of the molar value.
Key:
rat CRFR1α (rat) [1] = biological target: rat CRFR1α (rat) (UniProt P35353); assay: competition binding against [125I-Tyr0]h/rCRF, SPA; reference compound 6
rat CRFR1α (rat) [2] = biological target: rat CRFR1α (rat) (UniProt P35353); assay: competition binding; selectivity for CRFR1 over CRFR2, reference h/rCRF; data not shown
mouse CRFR2β (mouse) [3] = biological target: mouse CRFR2β (mouse) (UniProt Q60748); assay: competition binding
rat CRFR1α (rat) [4] = biological target: rat CRFR1α (rat) (UniProt P35353); assay: competition binding
mouse CRFR2β (mouse) [5] = biological target: mouse CRFR2β (mouse) (UniProt Q60748); assay: competition
rat CRFR1α (rat) [6] = biological target: rat CRFR1α (rat) (UniProt P35353); assay: competition binding (SPA); selectivity for rCRFR1 over mCRFR2β, reference h/rCRF

Chain of mouse CRFR2β (mouse) (Q60748 20-411): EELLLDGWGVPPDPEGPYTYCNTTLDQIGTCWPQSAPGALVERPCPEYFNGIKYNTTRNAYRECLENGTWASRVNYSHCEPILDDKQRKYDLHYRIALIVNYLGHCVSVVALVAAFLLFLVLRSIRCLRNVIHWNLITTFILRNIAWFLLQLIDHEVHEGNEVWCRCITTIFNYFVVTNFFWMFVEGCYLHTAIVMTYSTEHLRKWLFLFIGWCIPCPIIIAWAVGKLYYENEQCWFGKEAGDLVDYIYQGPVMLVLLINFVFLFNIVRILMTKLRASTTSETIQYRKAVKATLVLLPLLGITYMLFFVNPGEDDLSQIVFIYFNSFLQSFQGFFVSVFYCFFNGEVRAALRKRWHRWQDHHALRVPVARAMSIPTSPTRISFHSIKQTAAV
Chain of rat CRFR1α (rat) (P35353 24-415): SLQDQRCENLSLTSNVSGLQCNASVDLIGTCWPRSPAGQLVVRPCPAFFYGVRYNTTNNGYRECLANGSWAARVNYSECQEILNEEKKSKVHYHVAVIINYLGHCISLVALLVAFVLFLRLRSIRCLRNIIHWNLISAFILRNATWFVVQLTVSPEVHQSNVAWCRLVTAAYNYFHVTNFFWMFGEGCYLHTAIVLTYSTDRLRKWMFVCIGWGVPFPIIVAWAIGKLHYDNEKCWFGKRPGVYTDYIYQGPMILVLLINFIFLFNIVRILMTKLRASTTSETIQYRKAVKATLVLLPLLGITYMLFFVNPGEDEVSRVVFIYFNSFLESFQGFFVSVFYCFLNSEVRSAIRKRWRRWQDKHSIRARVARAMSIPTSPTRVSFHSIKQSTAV
Chain of human/rat corticotropin-releasing factor (P06850 154-194): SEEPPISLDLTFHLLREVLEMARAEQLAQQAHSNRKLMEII

pIC50 (rat CRFR1α (rat) [4])	Substance	pIC50 (mouse CRFR2β (mouse) [3])	other results
	[Ala^40] [Svg^1-12]x[h/rCRF^14-30]x[Svg^30-40] (peptide)		fold increase in affinity against compound 6 (rat CRFR1α (rat) [1]): > 5 fold
	[Ala^41]h/rCRF (from UniProt P06850 154-194) (peptide)		fold increase in CRFR1 selectivity against h/rCRF (rat CRFR1α (rat) [2]): 3 fold
8.74	[Svg^1-29]x[h/rCRF^31-41] (from UniProt P01144 1-29; P06850 184-194)	9.01	
8.70	[h/rCRF^1-30]x[Svg^30-40] (from UniProt P06850 154-183; P01144 30-40)	6.48	
8.80	human/rat corticotropin-releasing factor (from UniProt P06850 154-194)		pIC50 (mouse CRFR2β (mouse) [5]): 7.38
	ovine corticotropin-releasing factor (peptide)		fold higher selectivity for CRFR1 than h/rCRF (rat CRFR1α (rat) [6]): 3 fold

Substance	pIC50 (rat CRFR1α (rat) [4])	pIC50 (mouse CRFR2β (mouse) [3])	other results
[Svg^1-12]x[h/rCRF^14-30]x[Svg^30-40] (from UniProt P01144 1-12; P06850 167-183; P01144 30-40)	8.02	6.15	
[h/rCRF^1-13]x[Svg^13-29]x[h/rCRF^31-41] (from UniProt P06850 154-166; P01144 13-29; P06850 184-194)	9.33	9.16	

Source: patent US20080221021A1, “Novel Corticotropin-Releasing Factor Receptor 1 (Crfr1) Agonist” (Max-Planck-Gesellschaft Zur Forderung Der, priority 2004, published 2008)
